Data: the DeepSol protein solubility set

Experiment: soluble on expression in E. coli; label from the status in PepcDB or PDB records

Soluble on expression in E. coli, not soluble:
MGSDKIHHHHHHMWYKNNSFRFTRRFFMRVRVSAVFEQAGEILCMKYIYGGKEVFALPGGGVDKDIPLQEAIVNEWKEELGIKVDIGDIILIGEAPAGKRHPQTLHVVFEAREIRGTPKVRSDATHSLDVAWVPLEKLSSLPLYPDVGKQLSASFSEEPRRSVAFISNCMERGYW, MGSDKIHHHHHHMYEDELIFLEKTASIDIFEYSEQGIKTILDSPKHYNHGLMIRAAKLSREGFYSLVKYNSSYMLLVPLAKDKGLILSPKIDSLNNSESSFSNIDFINHSTSLAELAYFLYTKESAPNWNRVIYNLNEISDPVKQVQPMKNLHAFHRYANKMVDYFAQLDDKKFKLYINKMKSCQVFGDTLTTSNVIRGEKDILIDIISKLTDRSEKEGLPFEKVVFIQSVSVQKIELQANILNFNGWLEEIPYAYFNELKKWRENLFIDKADKIERYLKLNSRENIKLKDISKELGISEQSLNTIFKKKYGMTTKKYLIELKIENDKELLTTTELKIHDISEYLSFIDESYFISTFNKSCGMTPSKYRQNYIDKLLNKKSV, MGSDKIHHHHHHMYIDGVFSGGGVKGIALAGAYEVLEEKGFRFKRVAGTSAGAIIAAFIASGYTSKEIHALIEEVDGEKLLDQRYSFLPLKMLQWVSIYWRLGLYKGDTIEKWIADLLRAKGIRVFGDLQKGSLRLIASDLTNGTMIVLPDDLARYGLNPDMFPVARAVRMSCSIPYFFEPIKLKTDTGTATVVDGGVLSNFPIWLFSKERKRPVIGVTLAPRERERPKKNIRNAFELFGALFETMKDAHDARHIASRYEQNIIFLPVDDVMATDFHLTQQKKLALIELGKRRTELFLKQWTY, MGSDKIHHHHHHMYNKFKLMAKIYLGPAGVPHSAKKKNTVEGIRTVKELGLNAMEVEFVQGVRMSKETAEETGQVARELGVRLSVHAPYFINLCSEEKEKIEASKQRILDTADRAELMGADAIAIHIAFYGKMTPEECYQNVKEGLEEVIDKAREMGIRNVKFGVETMAKETAFGTLDEVISISKELKGVIPYIDWAHTFARQGGEIDYGKIIDRLIKELGLTHINSHFESLVYRRGKYVDEHIPIDANAPPFEPLAKELLKRDISITLICESPELERDALKMKEVLERLGYRLE, MGSDKIHHHHHHMYNVQTYKEKISRFEEVCFNWELKRASIVLNKRFSSYNSSAKVLLDAGFSLYAAKIEVCRELNNGEELERQYTYRSIAEGTLSEKDFKYIWEQCMSGSGNQTSILTIDEHFYSVQTELDKGWEKSCIVFYDKNEPIGMSIPHIETGTESEGRLFYFGVMLYYRGKGIASRLHLQSLHMLKEMGATYYIGSTHTSNEKMQRIFWRNNCSLKTEIELYYKIFNEG, MGSDKIHHHHHHMYRVMFVDDEYMILEGLKWIIPWQELGFEIVKTARSAQEALAFLETESIDVLLTDITMPEMSGIELIEQAKKKGHQFISLILSGYQEFDYVKKGMALQVQDYLLKPVNKQELLANIQRIKIELDQQKKSHARVRLYLENGLMRWLNDEISEGEYEELMQQFATIKPGDFTVLLVEAEMSFLETIKELFMKKGQLLFIESWMSTYHQLLLIYKGARQEAFLFIREIEAILAGQGQIFVGESVNEWETVYESYEKVKQLQAIETFYQEFLPNNQKEQMNRSAEDFTFLAFNQALMIGDMQTIQRELDAIFNQLSQQHATPEYVRYVVFLLFSDISRQYPTVLEENYEKIVEEIRASNNLNTLYALMQQVLAEVKNKPKIKKYSESVSQAVERIEQGYLEELNLKTVADELHLNPSYLGQIFKKETKRSFSQYLNQVRTKHAQKLLLYTDDTINEISEKVGFNNTNYFSKMFKKLNGITPKEFREQYQSNYAGVEE, MGSDKIHHHHHHNEKGGGTGSSSVGADTEPSVTGVHWTVDSVTVNGTTHQAPDGAHVEIAEDGRATGNYGCNSFHSTATFKGDRITLSRTLSTEMACEKRPMEFETTLARALAAGPLTAEAGQGKLTLTTAKGDRVHLTEEKDAPLYGTKWTVNSLIGGDVAQSLPAAADGKAWLTFTKKSESGDKKSGEKERGDKEVGTVSGSLGCNRVSAMATVRGSHITLGAPRTTRQMCSGSLMTTEKSLLKLFDSTVSYRIDHRAITLTSENGEGIGAIADR, MGSDKIHHHHHHNKSEDKLSGDDFWAQGNETNAEAFLLSIYNSFRNATMSQRPFLTYSGDMRCAPITAYSTGDKYVAYLANNDMGELRNTYPDDARGGLIMQWDVFYTAIQDANILLAEIDKVPGMDELKRSRFKAEAIFMRSLSYFFIVRAFGDVPYYTNAYNEAPLPRTNMVIVLQNCLADLQPLLDDDPGAEVLPWSYSSYSSKGIRASRGSVIALMMHINLWLVQFDAQNKEQYYRNVVSLGEELERNNGAYSLLDINRSSVIFAGGSDEGLFEIAQNINFNEIFMMNAKFSDNVSYSCLNKSMPLFCYSGDYLMTLFPMYEDDARKELWFDEKIYSTSVSSSAPKEIKKFWNIDTYGNGTITSNSGNQIVFRYAGALLLYAEALAALGTNDTKACELLNRVRNRAHASEINTSGSELMDAIFWERCRELIGEGHYYYDLVRTGKVYNRNYCMNPMTRTNFNVGAWTWPIHRNALKNNTQIGLNLFWE, MGSDKIHHHHHHQTAEPPKTVRPDQLAFRDLYKELVEINTTLSVGSCTAASEAMGARLKAAGFPEADVRVVVEPKHPREGNLVAVLRGTDATTKPMLLLAHIDVVEAKREDWTRDPFKLVEENGYFYGRGTSDDKAQAAIWVDSLIRLKQAGFKPKRDIKMALTCGEESEGYNGIEDLLKNHRPLVDAEFALNEGASGLLDEQGKAVMLEVQAGEKVYQDFTLTVTNPGGHSSRPVSPNAIYQLSAALDRIGAYQFPPRFNDATRGYFTQMQARVTPEQAAAMKTLVADVNDPAALALITKDRTWNSMLRTTCVATMVSAGHAPNALPQRATANINCRILPGTPIDEVKAKLTELAADPAVAVTLAHSSKPASPPPPLTPAIMAPIQKNAAKLWPGVPILPVMSTGATDAVHTSAAGIPTYGVTGLFHGPEGTGAHGLNERMRVKSLYEGRDFLHGLIQDYAGGK, MGSDKIHHHHHHSCEKDPDLSKLDNNFTVYTNYDSKTNFNDFKTYCLPDSILLIGQGMKAEFWKDENAQEIIKQVADEMDTRGYTRVKVIKNANIGLQLSFTRQTTQIIGTGGWYGGGWYNGWWGPGYWGPYWNDWYYPYPVTYSYNTGTLIMEMVNLTDHPEDTSQKVKLPVIWHSYATGLLFENSKYNMQLTLDAVNQAFDQSPYIKKS, MGSDKIHHHHHHSDDREMDDGRWKASALRVPLQVSSAVIKQEVVTRLAPDPVPLTEGAIGIFLSGTEPESGQEDSGYKVIDNRKYVYSEGHWGPPTANDTIYLVGNDADVCAYYPYKDSYTDKTVIPLQSQDYVETEDIYYALNTMINGFTPAITFDMVHAYSLVELKISRENYFMPCEISKITLKNSNLIKKGTINIAVDGSIHSSETGNYDLTTVTDASPHTLSVGESYVCRVLMIPVPLKIERTDAEGGEFGLSVSLVIDGQQMLVEIPYSELGEFRQGEKYVIGLKIKGTEIVPTVKALEWEDEEVNGGNKYPVE, MGSDKIHHHHHHSEDINRNPLLPTKEDEKMDGVIYGAYLPNLEKSVIPIGTASESTEPVNRYQIGVNLAGDAWAGYMSPRDNKFNGSKNFTNYFMYENWVNYVYSFMVTDVYSPWMQIKRISQDEGTRNDEIYALAQIIKIAALHRTTDMFGPIPYSQVGKGSFKVAYDSQESVYRSFLKELEEAVQTLDDYSNKSKEVLPAFDIVYNGDVNKWMRFANSLMLRLAIRVRFADAGLAKEYAEKAVKHPAGLINSKELAAQMGKGAGLQMKNPLKVINEEYNDTRMGATIYSYLAGYNDARAAVYFVKNNGFKAVRCGIAKSGDAYNGFTRPNVHEDDPLYWMKASEVCFLKAEGALAGFDMGGSAGDFYNAGIRMSFSENGLDNSSAETYLKDSTRKPANYTDTSNGELSANAPSSITIRWENGATEEEKLERIITQKYLAIFPNGQEAWTEWRRTGYPRQIVVAENKTNSAVLIGNGYDLGGVRRLPYPRTEYEQNGENLHNAISQYLGGVDNAATKVWWDKKSK, MGSDKIHHHHHHSSCGNDESDPDSTVTIAMATVEKQPQYDAPYLVLDNGEKLWVVQHIVPYRDLKAGERIFGNYSFLEAGESGFAYNIRLNDYTLVPVQKIIGLNPDNMDSIGNMKVQIKDMWPSDDYLNVRFMLNFPSPQKPILNLVVNEMIPWTKDGYAHLELRYNNNGSQGRLVPGMVSFKLDDYSPENSELKGIKVLVNPVDGEEKTYIFSYPLTGEDVPGFNPLDLAELK, MGSDKIHHHHHHVASQTPGTEAQSQTVQPGRIAAISLHTSPLDQPGTGDAGGMNVYIVEVAKRLAERGIAVDIFTRATSFEQPPEVELAPGVTVRNIAAGPYGTLDKTALINYLCPFVHGMLRAEAEHLGGSYDLVHTHYWLSGQAGWPVAREWGVPLVHSMHTMARVKNMSLAEGDTPEPEERVRGEDALVALADRLIANTDDEAAQLINYYGASPSRVSTVFPGVDLTTFTPGSRAESLRRLGLPEDTILLLFVGRVQRLKAPDVLLRAAARLLELNPSLRDRLVVAVVGGQSGTGYREPWLLSDLADSLGIADLVRLEPPCPRAELVHYYRAATVTVVPSHSESFGLVAVESQACGTPVVAARVGGLPTAVRDGVSGVLIDGHDPHDYANVLHRMITEPRWRERMGAAGIHHASGLSWESTVDGLLAAYRDALHQCRLTVPCR, MGSDKIHHHHHHVDIQQIRNATLVVNYANQVFLIDPFLGEKGSLPPFGETPNAVPNPLVDLPVDVSTLLDPDAIFVTHLHADHFDETAKEILPKQIPLYAQNQADAATIREAGFTNVSSFENGLALGDIRVYHTSGRHGVGEIGQRMGTVSGLVLTHPDEPTLYIAGDTIWCEEVETAIEQHAPDIIIVNSGAAQFLTGEPITMSQRDLLAVHQAAAEATIIVSHLESVNHCLLRRDMIADFLAAHHLSAHFLIPDDGETISF, MGSDKIHHHHHHVGNLLVNLAMVLRQPTGISTYALSLLPYLRSLQPTLLSDRLYEGFDHQLISSRLCSDRGRRARLARLYWTQTQVPKLYRRLGSRLLFSPAPEAPIDRHCRSVVMVHDLRPLQLPSHSWQTYYFRWVVPKIVAQASHVLCNSEATATDLCHFYQLPAQKITPIYLGYDRQHYQPWSGKTSNYFLHIGQQFPHKNLERLIRAFAQLPTDYQLYLAGSRHASETPRLEQLVHSLGLRDRVQFLRYVDYADLPRLIGEAIALVYPSLWEGFGLPILEAMACGTPVITAHGSSLSEVGGEAVLYVDPYRIEAIAAAMRDLIDDSNLRQSLRDRGFQQASRFSWEATGKETCQVLEKFL, MGSDKIHHHHHHVSEAIVFTSGKGGVGKTTVISNIGVELSQLDKKVIMLDTDMGLRNLDLVMGIEDKVNYNILDILNRSCRIRQAIIRNKKYPNLYVIPAAPSMDTLCSYEARFKILIEELKASFDYCLIDSPAGIDSGFWFSVSPADRAIVVTTPHVSAIHDARRCISLLDSAHLDDISVIVNAYDKHMVRRHQMISDNDITALLSTRIIGTIPYDKSVIICQNRGIPVREAKSRLSPVFARISGQIIHSSDDMRGAAV, MGSDKIHHHHHHVTIPTQAKFTLRGRNPDVLSCIANLSNDEVFTPPEFAARMLDTLAQAWAEDHGGANLWADPTVRFLDPCTKSGVFLREITRRLVEGLAEQMPDLQKRVDHILTRQVFGIGITRLTALLARRSVYCSKYANGPHSIAKSFTTEAGNIWFERVEHTWKNGRCVYCGASQGTLDRGEELESHAYAFIHTDDIKTRITEIFGDDMQFDVIIGNPPYQLASDGGTRDIPIYQHFVEQAKKLDPKYLVMVIPSRWMASGLGLSEFRQTMLADRRIRELVDFPVATEVFPGVEVKGGVCYFLWNAAREGDCNVTTVRGEELRSCTLQF
